The target in assay [1] is MDM2_(H.sapiens) SWIB domain (Homo sapiens (human)). In words: fluorescence polarisation; displacement: complex of MDM2 (0.2-2 μM) and FITC-p53TAD_(human)^15–26 (15 nM) displaced by increasing unlabeled p53TAD peptide or p53TAD^full-length; KD calculated from IC50 (Nikolovska-Coleska et al. 2004); 20 mM sodium phosphate pH 7.4, 150 mM NaCl, 1 mM TCEP.
For assay [2], the target named is MDM2 SWIB domain from Anguilla anguilla (European eel) (Anguilla anguilla (European eel)). The description is as above.
Assay [3] deals with MDM2 SWIB domain from Takifugu rubripes (Japanese puffer) (Takifugu rubripes (Japanese puffer)). The description is as above.
The target in assay [4] is MDM2 SWIB domain from Lepisosteus oculatus (spotted gar) (Lepisosteus oculatus (spotted gar)). The assay is described as above.
The target in assay [5] is T1, MDM2_(D.rerio) SWIB domain (Danio rerio (zebrafish)).
T1 chain: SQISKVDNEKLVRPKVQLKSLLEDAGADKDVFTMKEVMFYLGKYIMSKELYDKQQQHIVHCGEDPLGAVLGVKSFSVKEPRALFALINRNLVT
The assay is described as follows: FP. As to conditions: modification not given.

Assay [6] has as its target MDM2 SWIB domain from Oncorhynchus kisutch (coho salmon) (Oncorhynchus kisutch (coho salmon)). The assay is described as follows: fluorescence polarisation; displacement: complex of MDM2 (0.2-2 μM) and FITC-p53TAD_(human)^15–26 (15 nM) displaced by increasing unlabeled p53TAD peptide or p53TAD^full-length; KD calculated from IC50 (Nikolovska-Coleska et al. 2004); 20 mM sodium phosphate pH 7.4, 150 mM NaCl, 1 mM TCEP.

For assay [7], the target named is MDM2 SWIB domain from Clupea harengus (Atlantic herring) (Clupea harengus (Atlantic herring)). The assay is described as above.
For assay [8], the target named is MDM2 SWIB domain from Maylandia zebra (Maylandia zebra). Described as above.
Assay [9] deals with MDM2 SWIB domain from Channa argus (Channa argus). Described as above.

Data on 18 molecules can be found in PMC10901556, “Conservation of Affinity Rather Than Sequence Underlies a Dynamic Evolution of the Motif-Mediated p53/MDM2 Interaction in Ray-Finned Fishes” (Molecular Biology and Evolution, 2024).

Where no end group is shown, it is not given here.

Regarding Ac-SQEFAELWEKNL [Danio rerio (zebrafish) p53TADP2 p53TAD^15–27], the Kd (usually the concentration at which binding is half-saturated) in assay [1] is 4.33 µM.

Consider Ac-SQDETFQALWNTVT [Anguilla anguilla p53TADP2 p53TAD^15–27], for which the Kd in assay [2] was 1.2 µM; in assay [1], 0.77 µM.

Turning to Ac-SQDTFQDLWENVA [Takifugu rubripes (Japanese puffer) p53TADP1 p53TAD^15–27], the Kd was 4.5 µM in assay [3] and 1.7 µM in assay [1].

Turning to Ac-SQESFQELWNMVI [Lepisosteus oculatus (spotted gar) p53TAD^15–27], the Kd in assay [4] is 0.39 µM; in assay [1] it was 0.121 µM.

Regarding IINDEEYLPGSFDPN [p53TAD_(D.rerio)^41-55], in [5], the Kd was over 200 µM.

Turning to Ac-GQCSFQQLWESNM [Oncorhynchus kisutch (coho salmon) p53TADP1a p53TAD^15–27], the Kd in assay [6] was 2.1 µM; in [1], 3.15 µM.

Take Ac-SQGTFDEIWASNF [Clupea harengus (Atlantic herring) p53TADP1 p53TAD^15–27]: the Kd in assay [7] was 2.6 µM; in assay [1], 1.25 µM.

In [5], ELWEKNLISIQPPGG [p53TAD_(D.rerio)^21-35] yielded a Kd of over 200 µM.

As for GGSCWDIINDEEYLP [p53TAD_(D.rerio)^35-49], the Kd in [5] is over 200 µM.

As for DSQEFAELWEKN [p53TAD_(D.rerio)^14-26], the dissociation constant Kd in assay [5] was over 200 µM.

With Ac-SQGSFQQLWETNM [Oncorhynchus kisutch p53TADP1b p53TAD^15–27], the Kd is 3.5 µM in assay [6] and 5.15 µM in assay [1].

In the case of Ac-SQDSFKELWDQLP [Maylandia zebra p53TADP1 p53TAD^15–27], the values for the Kd in assay [8] and in assay [1] were 1.6 µM and 0.27 µM, respectively.

Consider Ac-SQDSFRELWESVV [Channa argus p53TADP1 p53TAD^15–27], for which the Kd in assay [9] is 3.3 µM; in assay [1], 1.1 µM.

On to IQPPGGGSCWDIIND [p53TAD_(D.rerio)^30-44], for which, in [5], the Kd was over 200 µM.

PGSFDPNFFENVLEE [p53TAD_(D.rerio)^49-63] registered a Kd in assay [5] of 210 µM.

In the case of Ac-SQESFEDLWKMNL [Oncorhynchus kisutch p53TADP2 p53TAD^15–27], the Kd is 1.16 µM in assay [6] and 0.79 µM in assay [1].

As for Ac-SQESFQELWKMMC [Anguilla anguilla (European eel) p53TADP1 p53TAD^15–27], the Kd in [2] was 0.19 µM; in assay [1], 0.013 µM.

Molecule QNDSQEFAELWEKNLISIQPPGGGSCWDIINDEEYLPGSFDPN [p53TAD_(D.rerio)^12-55] displayed a Kd in assay [5] of 0.033 µM.
